The record followed here is PMC9926331 (Journal of Molecular Cell Biology, 2022).

This assay has as its target GST-TIP60 (human, UniProt Q92993 1-513). Nature of the assay: pull-down.

Chain of GST-TIP60 (Q92993 whole entry): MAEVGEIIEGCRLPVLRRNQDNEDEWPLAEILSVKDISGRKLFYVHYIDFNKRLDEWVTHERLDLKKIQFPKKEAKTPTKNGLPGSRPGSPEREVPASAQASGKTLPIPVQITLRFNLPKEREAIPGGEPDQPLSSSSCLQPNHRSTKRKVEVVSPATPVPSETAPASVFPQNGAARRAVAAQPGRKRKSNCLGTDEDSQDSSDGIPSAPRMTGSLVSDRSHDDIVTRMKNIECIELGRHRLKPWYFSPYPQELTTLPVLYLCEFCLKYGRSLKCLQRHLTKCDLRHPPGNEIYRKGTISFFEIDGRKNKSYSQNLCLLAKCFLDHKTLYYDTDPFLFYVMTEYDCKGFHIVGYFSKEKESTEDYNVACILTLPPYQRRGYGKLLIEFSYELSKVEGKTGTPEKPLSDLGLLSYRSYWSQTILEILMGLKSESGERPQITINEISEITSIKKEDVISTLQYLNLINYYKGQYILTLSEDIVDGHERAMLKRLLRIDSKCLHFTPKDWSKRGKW

B1: MBP-Nup62-CT (domain or fragment, human, UniProt P37198 329-522, looked up)
chain: TYAQLESLINKWSLELEDQERHFLQQATQVNAWDRTLIENGEKITSLHREVEKVKLDQKRLDQELDFILSQQKELEDLLSPLEELVKEQSGTIYLQHADEEREKTYKLAENIDAQLKRMAQDLKDIIEHLNTSGAPADTSDPLQQICKILNAHMDSLQWIDQNSALLQRKVEEVTKVCEGRRKEQERSFRITFD
Take B1: the binding result is recorded as “binds”.
